Reference: US20240368668A1, “SUBSTRATES AND BIOMARKERS OF ADAMTS7” (The Broad Institute, Inc., priority 2021, published 2024)

Biological target: T1, mouse ADAMTS7 (Mus musculus, UniProt Q68SA9)
T1 construct: Full-length mouse Adamts7 1-1857 (Uniprot Q68SA9, WT or E373Q catalytic mutant); expressed in transfected cells; host or cells: Human Coronary Artery Smooth Muscle Cells (HCA-SMC, Lonza), adenovirus 50 MOI
T1 sequence (Q68SA9 221-1657): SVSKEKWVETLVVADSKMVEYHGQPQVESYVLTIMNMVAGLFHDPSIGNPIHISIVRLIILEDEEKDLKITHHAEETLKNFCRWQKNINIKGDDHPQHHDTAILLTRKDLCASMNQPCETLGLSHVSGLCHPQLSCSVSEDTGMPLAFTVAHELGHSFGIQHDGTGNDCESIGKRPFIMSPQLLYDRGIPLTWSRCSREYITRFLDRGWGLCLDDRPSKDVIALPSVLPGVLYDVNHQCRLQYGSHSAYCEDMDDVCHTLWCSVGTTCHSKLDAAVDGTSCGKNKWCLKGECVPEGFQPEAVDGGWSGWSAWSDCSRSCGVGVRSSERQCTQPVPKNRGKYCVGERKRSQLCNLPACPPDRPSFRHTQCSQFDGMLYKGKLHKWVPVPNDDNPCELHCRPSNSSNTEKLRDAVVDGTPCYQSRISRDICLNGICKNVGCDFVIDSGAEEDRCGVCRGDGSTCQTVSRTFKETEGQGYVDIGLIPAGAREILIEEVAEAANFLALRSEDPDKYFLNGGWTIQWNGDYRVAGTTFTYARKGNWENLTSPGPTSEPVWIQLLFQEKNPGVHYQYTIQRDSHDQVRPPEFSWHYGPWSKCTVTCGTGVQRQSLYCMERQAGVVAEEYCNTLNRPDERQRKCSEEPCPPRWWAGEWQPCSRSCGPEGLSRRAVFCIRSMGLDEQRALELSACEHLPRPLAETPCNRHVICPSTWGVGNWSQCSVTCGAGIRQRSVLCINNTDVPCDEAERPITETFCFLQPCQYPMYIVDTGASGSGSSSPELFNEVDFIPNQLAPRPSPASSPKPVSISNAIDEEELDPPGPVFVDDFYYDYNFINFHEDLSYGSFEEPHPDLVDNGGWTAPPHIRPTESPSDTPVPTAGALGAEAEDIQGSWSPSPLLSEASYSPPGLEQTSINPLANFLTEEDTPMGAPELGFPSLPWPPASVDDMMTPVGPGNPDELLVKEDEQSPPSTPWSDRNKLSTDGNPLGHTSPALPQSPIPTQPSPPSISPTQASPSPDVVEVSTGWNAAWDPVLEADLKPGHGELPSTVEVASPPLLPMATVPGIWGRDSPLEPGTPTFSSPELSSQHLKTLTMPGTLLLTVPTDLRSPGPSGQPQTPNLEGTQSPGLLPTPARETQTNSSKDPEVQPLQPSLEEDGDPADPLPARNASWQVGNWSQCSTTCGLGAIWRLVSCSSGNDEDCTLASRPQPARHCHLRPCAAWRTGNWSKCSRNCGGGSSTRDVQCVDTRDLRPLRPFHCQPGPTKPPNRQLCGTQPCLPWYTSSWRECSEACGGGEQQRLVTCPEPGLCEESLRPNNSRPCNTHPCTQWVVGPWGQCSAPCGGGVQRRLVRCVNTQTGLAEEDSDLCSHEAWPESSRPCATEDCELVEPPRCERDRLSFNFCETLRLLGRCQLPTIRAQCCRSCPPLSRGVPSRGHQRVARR
Experiment: TMT10 TAILS N-terminomics, HUVEC experiment (process replicates, trypsin/AspN digest)
Format: cell-based, human
Conditions: HUVEC TAILS HC; log fold change of N-terminal peptide, Ad-mADAMTS7 WT over Luc
Outline: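 Full-length mouse ADAMTS7 (WT or E373Q mutant, C-terminal 3xFLAG) or luciferase was transduced via adenovirus, 50 MOI, into HCA-SMC (SMC1, SMC2) or HUVEC. SMC1: pooled media, technical triplicates 400 ug; SMC2: process triplicates 300 ug; HUVEC: process triplicates 200 ug, bFGF2 10 ng/ml.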

| Substance | logFC.mWT.over.Luc |
| --- | --- |
| COL18A1_1505 (LQPPVVQLHDSNPYPR; listed as Homo sapiens) | 3.05 |
| LTBP2_79 (VAGLQPVER; listed as Homo sapiens) | 1.13 |
| LTBP2_250 (SAAGEGTLAR; listed as Homo sapiens) | 1.84 |
| LTBP2_502 (LVENSVETRPPPWLPASPGHSLW; listed as Homo sapiens) | 2.47 |
| NID1_360 (FHQQHPQVI; listed as Homo sapiens) | 1.48 |
| NID2_291 (HSSVPLGR; listed as Homo sapiens) | 2.80 |
| NUCB1_389 (LQQAVLHMEQR; listed as Homo sapiens) | 1.32 |
| THBS2_290 (LSENLKR; listed as Homo sapiens) | 5.05 |

Now from value to substance:

| logFC.mWT.over.Luc | Substance |
| --- | --- |
| 1.54 | LTBP3_208 (FLVPLGPGQISA; listed as Homo sapiens) |
| 2.87 | MAP4_815 (AVASTGPSSR; listed as Homo sapiens) |
| 2.13 | MAP4_816 (VASTGPSSR; listed as Homo sapiens) |
| 2.71 | NUCB1_317 (FLASTQR; listed as Homo sapiens) |
| 1.23 | SERBP1_56 (QAAAQTNSNAAGKQLR; listed as Homo sapiens) |
| 0.90 | SPOCK1_27 (LAGGAGPNHGNFL; listed as Homo sapiens) |
| 1.04 | SRGN_59 (LLPGESNKIPR; listed as Homo sapiens) |
